Measurements from patent US20240226308A1, “DOSING REGIMENS OF PEPTIDE CONJUGATES OF TOPOISOMERASE I INHIBITORS” (CYBREXA 2, INC., priority 2021, published 2024).
“Also recorded” adds a separate entry of the source. Like-named read-outs stand apart in the source and are kept apart here.

How the values were obtained:
[1] = Phase 1/2 study of Compound 1: pharmacokinetics; assay type: in vivo, human; conditions: for half-life: in vivo
Excerpt: (§1) This is a first-in-human, Phase 1/2 open-label, multicenter, dose-escalation, safety, pharmacokinetics (PK), and biomarker study of Compound 1 in subjects with advanced or metastatic refractory solid tumors.
• To determine the pharmacokinetics (PK) of Compound 1 • To evaluate the preliminary anti-tumor activity of Compound 1 based on Response Evaluation Criteria in Solid Tumors (RECIST) 1.1 as follows: • Objective response rate (ORR) • Duration of response (DoR) • Progression-free survival (PFS)
(§2) The subject will receive treatment with Compound 1 and be monitored for safety and disease status by AE assessment, physical examination, laboratory tests, radiologic assessment, and ECG. PK and biomarker samples will be collected. All AEs and serious adverse events (SAEs) will be assessed using the National Cancer Institute Common Terminology Criteria for Adverse Events (NCI CTCAE) v5.0. Disease assessments by computed tomography (CT) or magnetic resonance imaging (MRI) will be conducted at protocol-specific intervals. Subjects may continue treatment as long as they are tolerating treatment without disease progression based on RECIST 1.1.
(§3) Compound 1 was administered as a 1-hour IV infusion. As set forth above, the first patient on study was treated with a starting dose of 0.25 mg/kg, which was dosed daily five times a week every 3 weeks (Schedule A). Initially. an accelerated dose tritation was utilized, wherein single patient cohorts were accrued and the dose was escalated up to 100% for each new cohort until the occurrence of Grade 2 or greater treatment-related adverse events (TRAEs). A single patient was accrued to Cohort A1 (0.25 mg/kg). The dose was doubled to 0.5 mg/kg for Cohort A2, and 3 patients were accrued to this cohort due to the occurrence of greater than Grade 2 level adverse events.

[2] = Phase 1/2 study of Compound 1: safety and tolerability (adverse events, NCI CTCAE v5.0); assay type: in vivo, human
Excerpt: as §1
• To determine the safety and tolerability, maximum tolerated doses (MTDs) and dose limiting toxicities (DLTs) of Compound 1 in subjects with advanced or metastatic refractory solid tumors when administered on the following schedules: • Daily×5 every 3 weeks (Part A) • Daily×3 every 3 weeks (Part B) • To establish the Recommended Phase 2 Dose (RP2D) of Compound 1 for each schedule
as §2
DLTs will be assessed for all subjects enrolled in Phase I through their initial 3-week cycle of treatment (Cycle 1, the DLT period). Any AE occurring during the DLT period deemed at least possibly related to Compound 1 and meeting the criteria below will be designated a DLT. […] This will, however, be considered in the SRC's subsequent dose-level recommendations.
as §3
Schedule B: once daily three times per week every three weeks, on a mg/m^2 basis (in other words, the dosage was calculated based on the patient's body surface area)
Schedule C: once weekly on a mg/m^2 basis. Patients treated on this schedule received a sentinel dose on Day -14 followed by 2 weeks of no treatment to evaluate the full PK profile of Compound 1 and exatecan. Once weekly dosing started Cycle 1 Day 1.

[3] = Subject 1-5, Ovarian, prior TOP1 inhibitor Yes, Cohort B1 20 mg/m^2, Schedule B: Daily x 3 Every 3 Weeks
[4] = Subject 1-8, Pancreas, prior TOP1 inhibitor Yes, Cohort C1 20 mg/m^2, Schedule C: Once Weekly
[5] = Subject 1-9, Colorectal, prior TOP1 inhibitor Yes, Cohort B3 45 mg/m^2, Schedule B: Daily x 3 Every 3 Weeks
[6] = Subject 2-4, Appendiceal, prior TOP1 inhibitor Yes, Cohort B2 30 mg/m^2, Schedule B: Daily x 3 Every 3 Weeks
[7] = Subject 2-6, Breast, prior TOP1 inhibitor No, Cohort B2 30 mg/m^2, Schedule B: Daily x 3 Every 3 Weeks
[8] = Subject 2-12, Breast, prior TOP1 inhibitor No, Cohort B4 60 mg/m^2, Schedule B: Daily x 3 Every 3 Weeks
[9] = Subject 3-1, Colorectal, prior TOP1 inhibitor Yes, Cohort B3 45 mg/m^2, Schedule B: Daily x 3 Every 3 Weeks
[10] = Subject 5-2, Colorectal, prior TOP1 inhibitor Yes, Cohort B4 60 mg/m^2, Schedule B: Daily x 3 Every 3 Weeks

CC[C@@]1(O)C(=O)OCc2c1cc1n(c2=O)Cc2c-1nc1cc(F)c(C)c3c1c2[C@@H](NC(=O)O[C@H]1CCCC[C@@H]1SSC[C@H](NC(=O)[C@H](Cc1c[nH]c2ccccc12)NC(=O)[C@H](CC(C)C)NC(=O)[C@H](CC(C)C)NC(=O)[C@H](CC(=O)O)NC(=O)[C@H](CC(C)C)NC(=O)[C@H](CC(C)C)NC(=O)[C@H](CC(C)C)NC(=O)[C@@H](NC(=O)[C@H](CC(=O)O)NC(=O)[C@@H](NC(=O)[C@@H]1CCCN1C(=O)[C@H](Cc1ccccc1)NC(=O)[C@H](CC(C)C)NC(=O)[C@H](CC(C)C)NC(=O)[C@H](CC(=O)O)NC(=O)[C@H](CC(C)C)NC(=O)[C@H](Cc1ccc(O)cc1)NC(=O)[C@H](C)NC(=O)[C@H](CCCNC(=N)N)NC(=O)[C@H](Cc1c[nH]c2ccccc12)NC(=O)[C@@H]1CCCN1C(=O)[C@H](CC(N)=O)NC(=O)[C@H](CCC(N)=O)NC(=O)[C@H](CC(=O)O)NC(=O)[C@H](CC(=O)O)NC(=O)[C@H](C)N)[C@@H](C)O)[C@@H](C)O)C(=O)NCC(=O)O)CC3 [Compound 1]
accumulation ([1]; five consecutive days of dosing, Schedule A): significant accumulation | half-life ([1]; human, initial four patients, Schedule A (daily five times a week every 3 weeks), 0.25-0.5 mg/kg, 1-hour IV infusion, read-out: half-life of Compound 1 (converted)): ~20 h | half-life ([1]; prediction made before the study, read-out: predicted half-life (converted)): ~8 h | adverse events, Grade level ([2]; Cohort A2, 0.5 mg/kg, Schedule A, 3 patients): > 2 | Treatment-Related Adverse Events, Gr 1 [2, 3]: Gr 1: Fatigue | Treatment-Related Adverse Events, Gr 2 [2, 3]: Dehydration | Treatment-Related Adverse Events ([2]; Subject 1-6, Testicular, prior TOP1 inhibitor No, Cohort B1 20 mg/m^2, Schedule B: Daily x 3 Every 3 Weeks): No TRAEs | Treatment-Related Adverse Events, Gr 2 ([2]; Subject 1-7, Esophageal/GEJ (baseline Hgb 9.4), Cohort B1 20 mg/m^2, Schedule B: Daily x 3 Every 3 Weeks): Gr 2: Anemia | Treatment-Related Adverse Events, Gr 1 ([2]; Subject 1-7, Esophageal/GEJ, prior TOP1 inhibitor No, Cohort B1 20 mg/m^2, Schedule B: Daily x 3 Every 3 Weeks): Gr 1: Fatigue, | Treatment-Related Adverse Events, Gr 1 [2, 4]: Gr 1: Vomiting | Treatment-Related Adverse Events, Gr 2 [2, 4]: Gr 2: Nausea | Treatment-Related Adverse Events, Gr 1 [2, 5]: Gr 1: Vomiting,; also recorded: diarrhea | Treatment-Related Adverse Events, Gr 2 [2, 5]: Gr 2: Nausea | Treatment-Related Adverse Events, Gr 3 ([2]; Subject 1-9, Colorectal, AST/ALT elevation resolved to Gr 1 in 2-3 days, Cohort B3 45 mg/m^2, Schedule B: Daily x 3 Every 3 Weeks): anemia | Treatment-Related Adverse Events ([2]; Subject 2-1, Pancreas, prior TOP1 inhibitor Yes, Cohort C1 20 mg/m^2, Schedule C: Once Weekly): No TRAES | Treatment-Related Adverse Events ([2]; Subject 2-2, Colon, prior TOP1 inhibitor Yes, Cohort C1 20 mg/m^2, Schedule C: Once Weekly, off treatment after PK period): No TRAEs | Treatment-Related Adverse Events, Gr 2 ([2]; Subject 2-3, Ovarian, prior TOP1 inhibitor No, Cohort C1 20 mg/m^2, Schedule C: Once Weekly): Gr 2: Fatigue | Treatment-Related Adverse Events, Gr 1 [2, 6]: Gr 1: Anemia | Treatment-Related Adverse Events, Gr 2 [2, 6]: Gr 2: Nausea,; also recorded: vomiting | Treatment-Related Adverse Events, Gr 3 ([2]; Subject 2-5, Breast, prior TOP1 inhibitor Yes (C4D11), Cohort B2 30 mg/m^2, Schedule B: Daily x 3 Every 3 Weeks): Neutropenia | Treatment-Related Adverse Events, Gr 1 [2, 7]: Gr 1: Fatigue,; also recorded: nausea | Treatment-Related Adverse Events, Gr 2 [2, 7]: Neutropenia,; also recorded: WBC decrease | Treatment-Related Adverse Events ([2]; Subject 2-8, Osteosarcoma, prior TOP1 inhibitor Unknown, Cohort B3 45 mg/m^2, Schedule B: Daily x 3 Every 3 Weeks, removed from study on C1D2): No TRAEs | Treatment-Related Adverse Events ([2]; Subject 2-9, Breast, prior TOP1 inhibitor No, Cohort C1 20 mg/m^2, Schedule C: Once Weekly): No TRAEs | Treatment-Related Adverse Events, Gr 2 ([2]; Subject 2-11, Ovarian (C1D1 Hgb = 10.3), Cohort B3 45 mg/m^2, Schedule B: Daily x 3 Every 3 Weeks): Gr 2: Anemia | Treatment-Related Adverse Events, Gr 3 ([2]; Subject 2-11, Ovarian (resolved in 2 days), Cohort B3 45 mg/m^2, Schedule B: Daily x 3 Every 3 Weeks): Neutropenia | Treatment-Related Adverse Events, Gr 1 ([2]; Subject 2-11, Ovarian, prior TOP1 inhibitor No, Cohort B3 45 mg/m^2, Schedule B: Daily x 3 Every 3 Weeks): Gr 1: Nausea,; also recorded: lipase increase,; also recorded: alopecia | Treatment-Related Adverse Events, Gr 1 [2, 8]: Gr 1: Vomiting | Treatment-Related Adverse Events, Gr 2 [2, 8]: Gr 2: Colitis | Treatment-Related Adverse Events, Gr 4 [2, 8]: Neutropenia,; also recorded: thrombocytopenia | Treatment-Related Adverse Events, Gr 1 [2, 9]: Gr 1: Headache | Treatment-Related Adverse Events, Gr 2 [2, 9]: Gr 2: Nausea,; also recorded: WBC decrease,; also recorded: ANC decrease,; also recorded: diarrhea | Treatment-Related Adverse Events, Gr 2 [2, 10]: Gr2: Vomiting,; also recorded: dehydration | Treatment-Related Adverse Events, Gr 3 [2, 10]: anemia | Treatment-Related Adverse Events, Gr 4 [2, 10]: Neutropenia,; also recorded: thrombocytopenia
